Legend:
human serum albumin [1] = molecular target: T1, human serum albumin (human, UniProt P02768 25-609); test: SPR (ProteOn), HSA on chip, DARPin as analyte, 1:1 Langmuir fit
T1 construct: also called HSA
Method: (§1) SPR multi-trace analyses were performed similarly as described in previous Examples.
(§2) All analytes (3-fold dilution ranging from 600-7.41 nM) were injected in succession for 240 s and dissociation was recorded for 600 s using a constant flow of 25 μl/min (HSA) or 100 μl/min (MSA) (25 μl/min).

mouse serum albumin [2] = molecular target: T2, mouse serum albumin (mouse, UniProt P07724 25-608); test: SPR (ProteOn), MSA on chip, DARPin as analyte, 1:1 Langmuir fit
T2 construct: also called MSA
T2 sequence (P07724 25-608 limits assumed): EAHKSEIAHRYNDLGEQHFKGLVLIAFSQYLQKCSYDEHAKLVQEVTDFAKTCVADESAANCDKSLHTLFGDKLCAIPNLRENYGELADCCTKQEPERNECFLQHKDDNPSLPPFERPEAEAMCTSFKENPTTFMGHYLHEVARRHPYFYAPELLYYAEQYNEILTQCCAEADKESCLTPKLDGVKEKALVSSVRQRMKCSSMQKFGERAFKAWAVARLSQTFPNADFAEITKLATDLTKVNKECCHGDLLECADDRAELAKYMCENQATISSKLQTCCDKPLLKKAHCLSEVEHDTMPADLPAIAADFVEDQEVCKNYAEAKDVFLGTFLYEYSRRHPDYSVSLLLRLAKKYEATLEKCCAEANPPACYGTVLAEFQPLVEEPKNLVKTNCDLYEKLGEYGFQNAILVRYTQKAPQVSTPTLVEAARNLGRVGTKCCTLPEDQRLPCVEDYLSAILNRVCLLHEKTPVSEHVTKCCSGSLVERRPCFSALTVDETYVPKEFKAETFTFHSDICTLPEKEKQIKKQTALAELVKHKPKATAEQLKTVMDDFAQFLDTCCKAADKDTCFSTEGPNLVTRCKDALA
Method: as §1, §2

[3] = molecular target: T3, Human DLL3-ECD (recombinant extracellular domain of human DLL3, Examples 11, 17 and 19) (human, UniProt Q9NYJ7 27-466, biotinylated at the Avi-tag where immobilised (Examples 11 and 19)); test: SPR (ProteOn), biotinylated human DLL3-ECD on chip, DARPin as analyte, 1:1 Langmuir fit (same values as Table 14)
T3 construct: also called hDLL3-ECD; human ECD; not shown: Avi-tag and Fc knob into hole (order depends on the format)
T3 sequence: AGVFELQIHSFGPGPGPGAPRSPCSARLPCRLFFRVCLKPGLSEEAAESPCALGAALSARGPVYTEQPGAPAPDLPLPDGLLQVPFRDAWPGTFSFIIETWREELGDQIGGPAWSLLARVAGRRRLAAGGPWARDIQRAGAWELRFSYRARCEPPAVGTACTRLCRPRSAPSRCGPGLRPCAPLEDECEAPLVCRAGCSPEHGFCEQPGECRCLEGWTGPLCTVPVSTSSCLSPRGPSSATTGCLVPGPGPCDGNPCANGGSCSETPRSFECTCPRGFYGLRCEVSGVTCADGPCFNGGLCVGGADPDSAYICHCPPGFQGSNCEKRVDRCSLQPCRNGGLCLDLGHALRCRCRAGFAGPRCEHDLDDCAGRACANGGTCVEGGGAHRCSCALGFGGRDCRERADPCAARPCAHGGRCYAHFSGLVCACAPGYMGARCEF
Method: (§3) The data were generated using BioRad ProteOn instrument in SPR running buffer (PBS, pH 7.4 containing 0.005% Tween 20©). […] The chip was coated with biotinylated target to reach a signal intensity of 1516 RU (human ECD), 257 RU (human NTD), 1500 RU (cyno ECD) and 228 RU (dog NTD). […] Each injection was followed by a regeneration step with 16 mM H₃PO₄ for 18 s. […] The obtained SPR traces were used to determine on-rate and off-rate interaction parameters.

[4] = molecular target: T4, Cyno DLL3-ECD (extracellular domain of cynomolgus macaque DLL3, residues 27 to 466, Avi-tag, 3C site, Fc knob … (cynomolgus macaque, UniProt A0A2K5WSR1 27-464, biotinylated at the Avi-tag (Example 11))); test: SPR (ProteOn), biotinylated cyno DLL3-ECD on chip, DARPin as analyte, 1:1 Langmuir fit
T4 construct: range 27-466; also called cyno ECD; cynomolgus monkey DLL3; not shown: Avi-tag, 3C protease recognition site and Fc knob into hole
T4 sequence: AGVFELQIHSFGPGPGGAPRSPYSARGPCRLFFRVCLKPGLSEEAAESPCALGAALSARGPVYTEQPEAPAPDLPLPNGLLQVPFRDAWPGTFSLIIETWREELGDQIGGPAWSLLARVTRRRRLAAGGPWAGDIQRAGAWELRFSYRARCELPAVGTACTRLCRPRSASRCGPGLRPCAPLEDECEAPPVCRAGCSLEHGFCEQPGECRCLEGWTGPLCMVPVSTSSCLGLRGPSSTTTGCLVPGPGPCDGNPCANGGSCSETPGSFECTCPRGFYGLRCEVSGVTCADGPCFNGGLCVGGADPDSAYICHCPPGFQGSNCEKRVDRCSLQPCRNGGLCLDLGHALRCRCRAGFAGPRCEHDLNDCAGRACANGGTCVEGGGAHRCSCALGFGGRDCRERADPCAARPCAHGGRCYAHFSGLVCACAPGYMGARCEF
Method: as §3

[5] = molecular target: T5, Dog DLL3-NTD (truncated dog DLL3, N-Terminal Domain, residues 27-189, C-terminal 6xHis and Avi-tag) (dog, UniProt A0A8I3MXZ5 27-188, biotinylated at the Avi-tag); test: SPR (ProteOn), biotinylated dog DLL3-NTD on chip, DARPin as analyte, 1:1 Langmuir fit
T5 construct: also called dog NTD; not shown: C-terminal 6xHis and Avi-tag
T5 sequence: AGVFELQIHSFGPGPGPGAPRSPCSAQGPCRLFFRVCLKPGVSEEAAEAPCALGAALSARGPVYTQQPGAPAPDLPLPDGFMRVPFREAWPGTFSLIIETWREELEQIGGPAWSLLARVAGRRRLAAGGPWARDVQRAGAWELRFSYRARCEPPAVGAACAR
Method: as §3

[6] = molecular target: T3, Human DLL3-ECD (recombinant …); test: SPR (ProteOn), biotinylated human DLL3-ECD on chip, DARPin as analyte, 1:1 Langmuir fit
Method: as §3

[7] = molecular target: T6, Human DLL3-NTD (truncated human DLL3, N-Terminal Domain, residues 27-189, C-terminal 6xHis and Avi-tag) (human, UniProt Q9NYJ7 27-189); test: SPR (ProteOn), biotinylated human DLL3-NTD on chip, DARPin as analyte, 1:1 Langmuir fit
T6 construct: also called hDLL3-NTD; human NTD; not shown: C-terminal 6xHis and Avi-tag
T6 sequence: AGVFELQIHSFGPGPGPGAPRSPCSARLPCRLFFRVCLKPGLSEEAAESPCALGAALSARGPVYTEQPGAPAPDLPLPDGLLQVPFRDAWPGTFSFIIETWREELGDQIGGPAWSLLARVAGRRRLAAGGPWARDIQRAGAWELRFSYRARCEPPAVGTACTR
Method: as §3

[8] = molecular target: T4, Cyno DLL3-ECD (extracellular domain of …); test: SPR (ProteOn)
[9] = molecular target: T5, Dog DLL3-NTD (truncated dog DLL3, …); test: SPR (ProteOn)
human serum albumin [10] = molecular target: T1, human serum albumin; test: SPR (ProteOn), HSA on chip, IAM-capped 2D DARPin as analyte, 1:1 Langmuir fit
mouse serum albumin [11] = molecular target: T2, mouse serum albumin; test: SPR (ProteOn), MSA on chip, IAM-capped 2D DARPin as analyte, 1:1 Langmuir fit
human serum albumin [12] = molecular target: T1, human serum albumin; test: SPR (ProteOn), HSA on chip

B1: MAM279 (SEQ ID NO: 11) with a Glycine-Serine (GS) at its N-terminal end and an N-terminal His-tag (SEQ ID NO: 19) (designed binder)
chain: MRGSHHHHHHGSDLGKKLLEAARAGQDDEVRELLKAGADVNAKDYFSHTPLHLAARNGHLKIVEVLLKAGADVNAKDFAGKTPLHLAADAGHLEIVEVLLKAGADVNAQDIFGKTPADIAADAGHEDIAEVLQKAAGSPTPTPTTPTPTPTTPTPTPTGSDLGKKLLAAAAQGQDDEVRELLKAGANVNAKDLFGYTPLHLAAWRGHLEIVEVLLKAGADVNAKDAAGETPLHLAAWFGHLEIVEVLLKAGADVNAQDLQGKTPADLAAKEGHEDIAEVLQKAA
notes: also called unconjugated MAM279
Human serum albumin [1]
  Kd: 75.5 nM
  koff: 0.0216 s⁻¹
  kon: 286000 M⁻¹ s⁻¹
Mouse serum albumin [2]
  Kd: 144 nM
  koff: 0.0383 s⁻¹
  kon: 267000 M⁻¹ s⁻¹
[3]
  Kd: 0.174 nM
  koff: 1.45e-05 s⁻¹
  kon: 83500 M⁻¹ s⁻¹
[4]
  Kd: 22 nM
  koff: 0.000978 s⁻¹
  kon: 44500 M⁻¹ s⁻¹
[5]
  Kd: 1.2 nM
  koff: 5.58e-05 s⁻¹
  kon: 46400 M⁻¹ s⁻¹
[6]
  Kd: 0.174 nM
  koff: 1.45e-05 s⁻¹
  kon: 83500 M⁻¹ s⁻¹
[7]
  Kd: 0.263 nM
  koff: 1.54e-05 s⁻¹
  kon: 58700 M⁻¹ s⁻¹
[8]
  fold lower affinity than to human DLL3-ECD: ~100 fold
[9]
  fold lower affinity than to human DLL3-ECD: ~10 fold

B2: High HSA affinity 2D DARPin (SEQ ID NO: 17), Cysteine capped with iodoacetamide (designed binder)
chain: GSDLGKKLLEAARAGQDDEVRELLKAGADVNAKDYFSHTPLHLAARNGHLKIVEVLLKAGADVNAKDFAGKTPLHLAADAGHLEIVEVLLKAGADVNAQDIFGKTPADIAADAGHEDIAEVLQKAAGSPTPTPTTPTPTPTTPTPTPTGSDLGTKLLSAAADGQDDEVRELLQAGADVNAKDLFGYTPLHLAAWRGHLEIVEVLLEAGADVNAKDAAGLTPLHLAAWFGHLEIVEVLLEAGADVNAQDVQGVTPADLAAKEGHEDIAEVLQQAAGSGSC
modifications: free C-terminal Cysteine capped with Iodoacetamide (IAM)
notes: MAM160 with GS at the N-terminus and a Cysteine-containing tag at the C-terminus, without His-tag; also called GS-MAM160-tag
Human serum albumin [10]
  Kd: 295 nM
  koff: 0.0311 s⁻¹
  kon: 105000 M⁻¹ s⁻¹
Mouse serum albumin [11]
  Kd: 259 nM
  koff: 0.0345 s⁻¹
  kon: 133000 M⁻¹ s⁻¹
Human serum albumin [12]
  fold higher binding affinity than the Low HSA affinity 2D DARPin: ~10 fold

Reference: patent publication US20250332297A1, “DLL3-SPECIFIC BINDING CONSTRUCTS AND THEIR USE IN RADIOTHERAPY” (MOLECULAR PARTNERS AG, priority 2024, published 2025)
